The supplement of paper PMC10724198
± gives the standard deviation of the averaged measurements.

Tested on: Saccharomyces cerevisiae
Assay: protein stability index of tFT-peptide fusion (C-terminal peptide) (PSI (0-1 scale)); higher = more stable (slower turnover)
Details: genetic background: wild type; temperature: 30 C
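Also: PSI is a weighted mean of sequencing reads over stability bins, variants kept only with over 10 reads, mCherry proximal and sfGFP distal, peptide attached via GGGS linker.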

In order of rising protein stability index:
1. SLWPLFVDVVCL  0.498 ± 0.042
2. PRSTWPFRLFVR  0.531 ± 0.053
3. IYGCISVYYSSG  0.562 ± 0.014
4. VIACLCGGVMWV  0.577 ± 0.0008
5. STVPGRPKLTLV  0.578 ± 0.032
6. IVLSRVHLLVGP  0.5798 ± 0.0032
7. CSEGSSFVDKRG  0.594 ± 0.039
8. IGFHSGLFYYHC  0.594 ± 0.056
9. VRGVCGVGFGVW  0.604 ± 0.046
10. IQGRFYPLLEAH  0.606 ± 0.032
11. PPRLVPPLPPPL  0.635 ± 0.048
12. EERLGIIVRSDR  0.635 ± 0.079
13. GSRRVSFFLRFG  0.647 ± 0.033
14. PPRCHPPPPFPP  0.6466 ± 0.0047
15. FHGGRGLLLGMN  0.649 ± 0.077
16. LLFPFLSFLLPL  0.66 ± 0.037
17. GCIGGMAPWGGL  0.664 ± 0.0097
18. PLPPPPRPPPNP  0.665 ± 0.01
19. WVGEVSMGVRAG  0.666 ± 0.014
20. GAKGRGKERRGK  0.666 ± 0.051
21. YKRRYTKNQIRK  0.666 ± 0.054
22. ALRMVRHCPVNT  0.667 ± 0.029
23. EMCRCVEGREEG  0.6704 ± 0.0036
24. YCGCLGYATGRV  0.671 ± 0.017
25. AGLGGGARQGAL  0.672 ± 0.024
26. DPAKRTLTRSRR  0.673 ± 0.0079
27. ACLIHWVVSGAR  0.677 ± 0.016
28. RPSTVPGHGSDT  0.677 ± 0.011
29. AAPPPRRPCPPL  0.678 ± 0.038
30. SFSRLYGCVPRD  0.678 ± 0.0098
31. QFTSPHLNPFRT  0.6783 ± 0.0058
32. KKREEVKKNIKI  0.681 ± 0.019
33. TVNHKHALQFAT  0.681 ± 0.091
34. EAKKNNIVEKQR  0.681 ± 0.015
35. GSPPSSLTADSA  0.683 ± 0.017
36. LLLPPPVFPPSL  0.683 ± 0.01
37. TKKKKKKNKKQE  0.683 ± 0.012
38. LGRRGVVRVSPR  0.687 ± 0.052
39. DPPSVPSPLPTS  0.689 ± 0.016
40. GVIQARRSASSS  0.689 ± 0.043
41. PLPIPSPLRSSF  0.689 ± 0.053
42. CVWKWFSFSGGG  0.69 ± 0.021
43. KKEEEGRTKECR  0.694 ± 0.093
44. YHPPLTIQSLGH  0.694 ± 0.029
45. TTPHTSFTILHP  0.696 ± 0.087
46. ALLKGASCRTAS  0.696 ± 0.03
47. KRIIRSYHFLGC  0.698 ± 0.047
48. GSTLWGMAGGAR  0.6985 ± 0.0056
49. LSSPTHTPHPPS  0.701 ± 0.0097
50. RTGLLLLVQDFR  0.703 ± 0.018
51. PLLRPRLRPFPR  0.704 ± 0.049
52. NGVLGYAVLEGE  0.705 ± 0.044
53. CPLPPSTPPLRL  0.709 ± 0.0098
54. PALPTPILSSPP  0.709 ± 0.012
55. FASIESVENIEM  0.709 ± 0.07
56. NRGPPNMRQITP  0.712 ± 0.085
57. PLSPPPPTLPLP  0.714 ± 0.036
58. IPRRSSIPDKTP  0.718 ± 0.045
59. RGGWWGYRGGVP  0.718 ± 0.057
60. RALSPFPSILPS  0.719 ± 0.068
61. GRNLFGLLWARP  0.721 ± 0.0094
62. AEWGGSTGGCWG  0.722 ± 0.15
63. DGSKRDWFYNSA  0.725 ± 0.059
64. GVGFGCGGVWME  0.731 ± 0.012
65. VSLGNVGYFGSE  0.734 ± 0.039
66. LTFFRSSPPRPY  0.739 ± 0.031
67. PTRRPDLFYYSS  0.74 ± 0.017
68. RKEETINKESRR  0.742 ± 0.032
69. ALTGYYNQYRYE  0.745 ± 0.025
70. HCSLRPRPNHAR  0.746 ± 0.032
71. SPPPPSRLPPPP  0.748 ± 0.096
72. RITKKRQQIKKR  0.7482 ± 0.0028
73. SWGACVDYLGWS  0.754 ± 0.03
74. PSPTRLPPPSPH  0.757 ± 0.008
75. SPLPPPRSSSPP  0.76 ± 0.14
76. SPDHATYHNPAR  0.76 ± 0.074
77. SSPLPPPSRAAC  0.762 ± 0.011
78. PPPSPAPCPPSS  0.777 ± 0.043
79. SREEWQSSKLRD  0.784 ± 0.089
80. GIGSHSSSNVNP  0.791 ± 0.094
81. CDGGCSWGGLMG  0.795 ± 0.071
